Measurements published in patent publication US11155612B2, “vNAR antibody which binds VEGF for use in dogs or cats” (CENTRO DE INVESTIGACIÓN CIENTÍFICA Y DE EDUCACIÓN SUPERIOR …, priority 2017, dated 2021).

Legend:
VEGF165 = molecular target: T1, VEGF165 (Homo sapiens, UniProt P15692); assay: ELISA test recognition; format: binding; conditions: ELISA plates coated with VEGF165; compared with parental V13
T1 sequence (P15692 27-191 isoform P15692-4): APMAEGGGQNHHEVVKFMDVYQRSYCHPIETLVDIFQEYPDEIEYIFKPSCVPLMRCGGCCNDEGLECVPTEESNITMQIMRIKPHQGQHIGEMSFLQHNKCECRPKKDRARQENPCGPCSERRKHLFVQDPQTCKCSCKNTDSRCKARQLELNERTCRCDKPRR
Method: Decreasing concentrations of each vNAR were added to measure the recognition of VEGF compared to V13, which is the parental antibody.
ELISA plates were coated with the same amount of VEGF165; then, the wells were blocked with 3% BSA, several dilutions of clones P98Y and R97A, and the parental sequence (V13) were added.

[1] = system: human umbilical vein endothelial cells (HUVEC) expressing GFP and normal human dermal fibroblasts (NHDF); assay: Angiogenesis assay (vascular tube formation, HUVEC/NHDF co-culture); format: cell-based; conditions: VEGF 4 ng/ml; vNAR at eight concentrations
Method: In the vascular tube formation assay, a co-culture system of human umbilical vein endothelial cells (HUVEC) expressing GFP and normal human dermal fibroblasts (NHDF) was used. For cell seeding on day 0, one cryogenic vial of NHDF cells was thawed and resuspended in 12 ml of complete seeding medium. Then, 100 μl of this solution was added per well of a 96-well plate. The cells were incubated at room temperature for 1 hour. Then, 1 cryogenic vial of HUVECs was thawed and resuspended in 12 ml of complete seeding medium. HUVEC (100 μL per well) were seeded into the same plate as NHDFs. The cells were incubated at room temperature for another hour. The plate was then examined in an IncuCyte ZOOM and scanned using the “FOIL” scan type. After 24 hours, the culture medium was replaced with 150 μl of growth medium.
Forty-eight hours after seeding, the cells were treated with VEGF at 4 ng/ml and the test compounds at eight concentrations.
Serial dilutions of the compounds were prepared using assay media containing VEGF up to the final concentrations in FIG. 3. Then, 150 μl of medium containing the vNARs were added. In untreated wells, media without VEGF were added. For wells without compound, media with VEGF was added. […]
The formation of vessel tubes by fluorescently-labeled HUVECs was measured using live-cell imaging, and the effects of the vNARs on this process were assessed.

[2] = system: Murine Lewis lung cancer cell lines; assay: VEGF inhibition in vivo, ND-GFP nude mice with Lewis lung cancer footpad implant; conditions: for capillary growth around the tumor (vessel density): 27 μg vNAR i.p. twice per week, 6 doses over 18 days, vs untreated controls; for Normalized tumor weight / reduction of the tumor (weight), statistical significance: after day 18, 27 μg vNAR i.p., 6 doses; for Normalized tumor weight: n=8, PBS = 1.0 (100%); for reduction of the tumor (weight), statistical significance: vs PBS
Method: In vivo tests were conducted at AntiCancer, Inc. (San Diego, Calif., USA) in accordance with its protocols for handling animals approved under Assurance #A3873-1, and also approved by the Bioethics Committee of the Center for Scientific Research and Higher Education of Ensenada, Baja California (CICESE), approval number 2014/03. In order to minimize the suffering of the animals, anesthesia and analgesics were used for all surgical experiments. Animals were anesthetized by subcutaneous injection of a solution of 0.02 ml of ketamine 20 mg/kg, 15.1 mg/kg xylazine, and 0.48 mg/kg of acepromazine maleate. Animals responses during surgery were monitored to ensure adequate depth of anesthesia. The animals were observed daily and humanely sacrificed through CO2 inhalation when they met the following endpoint criteria: severe tumor burden (more than 20 mm in diameter), prostration, significant body weight loss, difficulty breathing, rotational motion, and body temperature drop. Animals were housed in a barrier facility, on a high-efficiency particulate arrestance-filtered rack under standard conditions of light/dark cycles of 12 hours. Animals were fed an autoclaved laboratory rodent diet. Eight nestin-driven GFP (ND-GFP) mice were used [Amoh Y, Yang M, Li L, Reynoso J, Bouvet M, Moossa A R, Katsuoka K, Hoffman R M. Nestin-driven green fluorescent protein transgenic nude mouse for imaging human tumor angiogenesis. Cancer Res. 2005; 65: 5352-5357], individuals from 6 to 10 weeks old were used per group. ND-GFP mice expressed GFP in nascent blood vessels. Murine Lewis lung cancer cell lines, stably transfected with red fluorescent protein (RFP) were used for implantation of foot cancer cells in the plantar pad (5×10^5 cells in 25 μl). The treatment began 3 days after implantation of cancer cells. All vNARs were administered intraperitoneally (i.p.) twice per week for a total of 6 doses over 18 days; each administration contained 27 μg of VNAR in 180 μl of PBS. After day 18, the implanted footpad of the mice in each group was imaged for GFP-expressing blood vessels. The vessel density was calculated as the total length of the blood vessels divided by the observed area. Each individual tumor was collected and, the weighed (g).

B1: P98Y: anti-VEGF vNAR protein, P98Y mutation in CDR3 of parental V13; corresponds to SEQ ID NO:1 (protein)
chain: ASLDQTPRTATRETGESLSINCVLTDTSHILFGTKWLWNNPGSTDWESITIGGRYAESVNNQAKSFSLQIKDLTVEDSGTYYCKAQTIGRRKNLLPRYLVNGIAAMGYSSSDYDGAGTVLTVN
modifications: Artificial sequence against VEGF, with single mutation in the CDR3 region from a parenteral vNAR sequence.
recognition of VEGF (VEGF165): greater recognition of VEGF than the parental | inhibition of angiogenesis (tube length and network branching) [1]: especially potent inhibitors of angiogenesis | capillary growth around the tumor (vessel density) [2]: reduced capillary growth around the tumor | Normalized tumor weight [2]: 0.71 | reduction of the tumor (weight), statistical significance [2]: statistically significant reduction of the tumor | reduction of the tumor (weight), statistical significance ([2]; listed as SEQ ID NO:1): allows reducing the size of the tumor masses

B2: R97A: anti-VEGF vNAR mutant, R97A mutation in CDR3 of parental V13 (protein)
chain: ASLDQTPRTATRETGESLSINCVLTDTSHILFGTKWLWNNPGSTDWESITIGGRYAESVNNQAKSFSLQIKDLTVEDSGTYYCKAQTIGRRKNLLPAPLVNGIAAMGYSSSDYDGAGTVLTVN
capillary growth around the tumor (vessel density) [2]: comparable with parental v13 VNAR | Normalized tumor weight [2]: 0.76
